In general, Kd refers to the concentration at which binding is half-saturated. A high value points to lower affinity.

For test [1], the target named is T1, Myo1 IQ12 (Schizosaccharomyces pombe, UniProt Q9Y7Z8).
T1 chain: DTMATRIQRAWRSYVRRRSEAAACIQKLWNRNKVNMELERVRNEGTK
Description: FRET.

Test [2] addresses T2, CyPet–Myo1^IQ1–YPet FRET reporter protein (S. pombe).
T2 chain: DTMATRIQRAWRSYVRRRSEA
Description: FRET.

The target of test [3] is T3, CyPet–Myo1^IQ12S742D–YPet FRET reporter protein (S742D phosphomimetic) (S. pombe).
T3 chain: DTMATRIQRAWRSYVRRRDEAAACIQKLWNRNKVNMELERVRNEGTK
Description: FRET; second site (Kd2).

The target of test [4] is T3, CyPet–Myo1^IQ12S742D–YPet FRET reporter …. Description: FRET; first site (Kd1).
Test [5] deals with T4, CyPet–Myo1^IQ12–YPet FRET reporter protein (S. pombe).
T4 chain: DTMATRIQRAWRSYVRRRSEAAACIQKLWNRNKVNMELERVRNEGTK
Description: FRET; first site (Kd1).

For test [6], the target named is T3, CyPet–Myo1^IQ12S742D–YPet FRET reporter …. Description: FRET.

B1: Cam1 (protein)
chain: not shown
With B1, the Kd in test [1] was 680 nM.

B2: Cam1 (wild type, amino-terminally acetylated fission yeast calmodulin) (natural protein)
chain: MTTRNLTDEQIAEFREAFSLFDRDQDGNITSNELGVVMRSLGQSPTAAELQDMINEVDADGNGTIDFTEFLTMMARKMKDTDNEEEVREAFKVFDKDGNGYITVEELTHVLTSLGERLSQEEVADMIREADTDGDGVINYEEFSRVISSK
modifications: amino-terminally (Nt) acetylated
Take B2: the Kd in test [2] turned out to be 60 nM; in test [3], 540 nM; in test [4], 90 nM; in test [5], 40 nM.

B3: Cam2 (protein)
chain: MPASKEQTDEMKEAFVLYDIDKDGLIPTSHVGSVLRSLGINVTDAELAKLSNELGDAIDEKKFMSFVSNKLRETESEEEYIKAFRVFDKDNSGYIETAKFADYMKTLGEKLSDNEVQLMVQEADPTNSGSFDYYDFVQRIMAK
Molecule B3 came in with a Kd in test [1] of 1100 nM.

B4: Cam2 (calcium-insensitive calmodulin-like protein) (natural protein)
chain: MPASKEQTDEMKEAFVLYDIDKDGLIPTSHVGSVLRSLGINVTDAELAKLSNELGDAIDEKKFMSFVSNKLRETESEEEYIKAFRVFDKDNSGYIETAKFADYMKTLGEKLSDNEVQLMVQEADPTNSGSFDYYDFVQRIMAK
For the molecule B4, the Kd was found to be 250 nM in test [6] and 20 nM in test [5].

For the origin of these results see PMC6802964 (2019).
